The results in this text go back to US12534534 (F STAR BETA, dated 2026).

For one test, the target named is T1, TNFRSF1A-Fc (human, UniProt P19438 30-211, limits assumed).
T1 construct: bought; also called TNFRSF1A (R&D Systems, 372-RI-050/CF); not shown: Fc part of the bought fusion
T1 sequence (looked up): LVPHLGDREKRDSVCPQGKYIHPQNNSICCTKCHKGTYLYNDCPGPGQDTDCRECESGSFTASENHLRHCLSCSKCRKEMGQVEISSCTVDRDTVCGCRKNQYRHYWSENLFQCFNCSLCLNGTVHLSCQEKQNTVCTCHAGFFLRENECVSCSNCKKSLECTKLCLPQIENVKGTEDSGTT
Kind of test: SPR, antigen immobilised on CM5 chip. As to the method:
(§1) Flow cell 1 was run as a blank immobilisation. The five FS20-22-49AA/FS30 mAb² were diluted to 1 μM and 1 nM in 1×HBS-EP buffer (GE Healthcare, product code BR100188), allowed to flow over the chip for 3 min and then allowed to dissociate for 4 minutes. A 30-second injection of 10 mM glycine pH 1.5 was used for regeneration. […] Binding levels were determined at the end of the association phase and compared.
(§2) Specificity was tested against the same five human TNFRSF members closely-related to CD137 (TNFRSF1A, TNFRSF1B, GITR, NGFR and CD40) plus an additional closely-related TNFRSF member, human DR6 (DR6-Fc; R&D Systems, 144-DR-100), using SPR as described in Example 3.1.

The next test has as its target T2, TNFRSF1B-Fc (human, UniProt P20333 23-257).
T2 construct: bought; also called TNFRSF1B (R&D Systems, 726-R2-050); not shown: Fc part of the bought fusion
T2 sequence (looked up): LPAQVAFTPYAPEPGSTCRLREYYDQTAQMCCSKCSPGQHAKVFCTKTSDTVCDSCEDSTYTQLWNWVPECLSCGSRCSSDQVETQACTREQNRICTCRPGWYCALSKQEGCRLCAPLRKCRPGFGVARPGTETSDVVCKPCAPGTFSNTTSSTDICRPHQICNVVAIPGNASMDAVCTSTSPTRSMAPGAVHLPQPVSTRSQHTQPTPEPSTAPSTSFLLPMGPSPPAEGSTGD
Kind of test: SPR, antigen immobilised on CM5 chip. As to the method: as §1, §2

The target of a further test is T3, GITR-hFc-Avi (human, UniProt Q9Y5U5 26-161).
T3 construct: in-house produced; not shown: hFc and Avi part
T3 sequence: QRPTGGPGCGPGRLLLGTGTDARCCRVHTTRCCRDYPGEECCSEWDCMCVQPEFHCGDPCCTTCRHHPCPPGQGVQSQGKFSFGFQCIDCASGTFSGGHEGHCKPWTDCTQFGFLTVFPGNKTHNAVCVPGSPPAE
Description: SPR, antigen immobilised on CM5 chip. On the procedure: as §1, §2

For the next test, the target named is T4, NGFR-Fc (human, UniProt P08138 29-250).
T4 construct: bought; also called NGFR (R&D Systems, 367-NR-050/CF); not shown: Fc part of the bought fusion
T4 sequence (looked up): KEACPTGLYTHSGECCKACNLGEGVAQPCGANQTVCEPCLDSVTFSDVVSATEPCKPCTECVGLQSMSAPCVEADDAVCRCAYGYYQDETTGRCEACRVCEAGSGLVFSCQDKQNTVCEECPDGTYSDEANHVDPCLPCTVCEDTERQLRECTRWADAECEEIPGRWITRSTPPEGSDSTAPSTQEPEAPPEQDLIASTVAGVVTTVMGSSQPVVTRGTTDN
Description: SPR, antigen immobilised on CM5 chip. On the procedure:
as §1, §2

Another test addresses T5, CD40-mFc (human, UniProt P25942 21-193).
T5 construct: in-house produced; not shown: mFc part
Kind of test: SPR, antigen immobilised on CM5 chip. On the procedure: as §1, §2

A further test concerns the target T6, DR6-Fc (human, UniProt O75509 42-349, limits assumed).
T6 construct: bought; also called human DR6 (R&D Systems, 144-DR-100); not shown: Fc part of the bought fusion
T6 sequence (looked up): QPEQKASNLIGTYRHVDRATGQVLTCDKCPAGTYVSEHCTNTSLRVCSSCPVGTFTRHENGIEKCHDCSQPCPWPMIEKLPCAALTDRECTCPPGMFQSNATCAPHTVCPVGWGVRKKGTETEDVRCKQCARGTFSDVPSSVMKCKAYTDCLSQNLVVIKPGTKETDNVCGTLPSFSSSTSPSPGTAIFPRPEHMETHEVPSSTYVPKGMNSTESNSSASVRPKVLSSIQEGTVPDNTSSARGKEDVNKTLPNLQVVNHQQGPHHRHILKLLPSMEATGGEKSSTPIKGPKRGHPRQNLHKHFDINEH
Description: SPR, antigen immobilised on CM5 chip. On the procedure: as §1, §2

The target in another test is T7, cCD137-mFc-Avi (cynomolgus, Homodimer through the mouse Fc (one chain given). In the biotinylated version one biotin sits on the Avi-tag lysine of each monomer.).
T7 construct: dimer; biotinylated version used on streptavidin plates; also called cyno CD137-mFc-Avi; cyno CD137-mFc
T7 chain: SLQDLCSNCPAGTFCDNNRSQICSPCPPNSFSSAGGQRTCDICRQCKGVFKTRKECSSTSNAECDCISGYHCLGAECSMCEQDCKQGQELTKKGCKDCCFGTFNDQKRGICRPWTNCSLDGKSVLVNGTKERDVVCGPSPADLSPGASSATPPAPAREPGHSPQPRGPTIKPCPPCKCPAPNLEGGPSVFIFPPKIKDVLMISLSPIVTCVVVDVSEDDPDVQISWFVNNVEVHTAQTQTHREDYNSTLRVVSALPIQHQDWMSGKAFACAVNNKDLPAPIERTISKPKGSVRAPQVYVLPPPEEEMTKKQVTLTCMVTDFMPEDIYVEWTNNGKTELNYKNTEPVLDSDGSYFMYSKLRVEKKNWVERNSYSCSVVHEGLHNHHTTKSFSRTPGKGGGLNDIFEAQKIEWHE
Kind of test: SPR (Biacore 3000), mAb captured by anti-human Fc, dimeric CD137-mFc as analyte, 1:1 model with mass transfer. As to the method:
Briefly, 25 µg/ml anti-human IgG (Fc) antibody (GE Healthcare, Human Antibody Capture Kit, BR100839) was coated on flow cells 1, 2, 3 and 4 of a Biacore sensor chip CM5 (GE Healthcare, BR100012) for 3 minutes at 5 µl/min, achieving a final response of approximately 4300 RU. The mAb² clones, diluted in HBS-EP buffer (GE Healthcare, BR100188) at 0.5 µg/ml, were injected individually on flows cell 2, 3 and 4 at 30 µl/min to achieve a response of approximately 80 RU. […] Regeneration was achieved by injecting 3 M magnesium chloride (GE Healthcare, Human Antibody Capture Kit, BR100839) for 30 seconds at a rate of 30 µl/min. […] These slightly less stringent conditions were used to assess whether this molecule could bind to cyno CD137-mFc. Subtracted data (flow cell 2-flow cell 1, flow cell 3-flow cell 1, or flow cell 4-flow cell 1) were analysed using BIAevaluation 3.2 Software (GE Healthcare) to identify binding using the model 1:1 binding with mass transfer, with refractive index (RI) constant 0.

T5 sequence (P25942 21-193): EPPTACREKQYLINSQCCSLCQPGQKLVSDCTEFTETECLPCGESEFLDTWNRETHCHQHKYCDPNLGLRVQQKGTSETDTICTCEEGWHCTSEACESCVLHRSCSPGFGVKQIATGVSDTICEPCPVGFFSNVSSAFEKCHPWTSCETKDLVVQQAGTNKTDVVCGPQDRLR

B1: G1/MOR7480.1 (antibody, human IgG1, lambda)
heavy: not shown
light: SYELTQPPSVSVSPGQTASITCSGDNIGDQYAHWYQQKPGQSPVLVIYQDKNRPSGIPERFSGSNSGNTATLTISGTQAMDEADYYCATYTGFGSLAVFGGGTKLTVLGQPKAAPSVTLFPPSSEELQANKATLVCLISDFYPGAVTVAWKADSSPVKAGVETTTPSKQSNNKYAASSYLSLTPEQWKSHRSYSCQVTHEGSTVEKTVAPTECS
notes: human IgG1 without LALA; also called MOR7480.1 in IgG1 format
Turning to B1, the binding result in the test with TNFRSF1A-Fc, with TNFRSF1B-Fc, with GITR-hFc-Avi, in the test with NGFR-Fc, in the test with CD40-mFc and with DR6-Fc was “no binding” throughout. Moreover, the dissociation constant (Kd) with cCD137-mFc-Avi was 340 pM.
